Values of other authors, collected in PMC2662774.
pKd: −log10 of the molar value.

How the values were obtained:
[1] = biological target: CXCR4 sY21 P38 peptide 1-38 (Homo sapiens) (UniProt P61073); test: NMR titration
[2] = biological target: CXCR4 1-38 (sY21 P38) 1-38 (Homo sapiens) (UniProt P61073); test: NMR

Sequence of SDF-1α (P48061 24-88): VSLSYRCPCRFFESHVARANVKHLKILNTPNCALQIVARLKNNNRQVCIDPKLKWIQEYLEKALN

- pKd [1]: 5.89
- pKd [2]: 5.89
Substance: SDF-1α (from UniProt P48061)
